Experimental data: patent US10428140B2, “Anti-EphA4 antibody” (EISAI R&D MANAGEMENT CO., LTD., priority 2015, dated 2019)
Where a chain is given by its changes, count along the chain named.

T1: human EphA1 (Homo sapiens, UniProt P21709)
T1 construct: a protein of the extracellular region of each human Eph receptor fused with the SEAP protein and the His tag; made in house; host or cells: Expi293F cells (culture supernatant)
T1 sequence (P21709 26-547 limits assumed): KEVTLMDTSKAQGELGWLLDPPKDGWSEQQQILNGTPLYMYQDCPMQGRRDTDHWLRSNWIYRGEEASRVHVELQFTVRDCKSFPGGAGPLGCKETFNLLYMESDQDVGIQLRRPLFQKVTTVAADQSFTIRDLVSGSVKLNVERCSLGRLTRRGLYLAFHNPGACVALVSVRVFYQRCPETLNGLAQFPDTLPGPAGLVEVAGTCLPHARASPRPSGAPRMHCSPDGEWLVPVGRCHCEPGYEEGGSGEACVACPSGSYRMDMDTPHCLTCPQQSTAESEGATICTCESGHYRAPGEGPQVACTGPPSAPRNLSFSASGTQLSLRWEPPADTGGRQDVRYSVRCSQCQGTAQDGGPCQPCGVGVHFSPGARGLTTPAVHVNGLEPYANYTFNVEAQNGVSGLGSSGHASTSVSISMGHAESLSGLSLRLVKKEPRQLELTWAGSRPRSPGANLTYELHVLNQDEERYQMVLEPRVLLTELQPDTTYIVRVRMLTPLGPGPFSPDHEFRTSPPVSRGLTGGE

T2: human EphB1 (Homo sapiens, UniProt P54762)
T2 construct: a protein of the extracellular region of each human Eph receptor fused with the SEAP protein and the His tag; made in house; host or cells: Expi293F cells (culture supernatant)
T2 sequence (P54762 18-540 limits assumed): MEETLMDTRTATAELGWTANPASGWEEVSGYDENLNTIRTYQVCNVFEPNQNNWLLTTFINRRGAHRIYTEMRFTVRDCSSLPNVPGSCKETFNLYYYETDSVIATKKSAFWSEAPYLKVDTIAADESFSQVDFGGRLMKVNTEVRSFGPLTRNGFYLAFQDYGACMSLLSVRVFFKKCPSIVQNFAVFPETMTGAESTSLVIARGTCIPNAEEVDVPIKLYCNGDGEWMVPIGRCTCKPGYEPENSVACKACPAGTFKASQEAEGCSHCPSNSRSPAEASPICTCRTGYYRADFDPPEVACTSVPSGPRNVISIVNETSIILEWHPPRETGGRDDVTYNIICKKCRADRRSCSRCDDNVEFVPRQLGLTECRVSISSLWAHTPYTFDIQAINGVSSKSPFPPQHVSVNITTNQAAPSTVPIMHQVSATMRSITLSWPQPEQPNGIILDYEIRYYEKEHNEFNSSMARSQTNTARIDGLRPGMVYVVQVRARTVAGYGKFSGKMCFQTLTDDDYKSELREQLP

T3: human EphB2 (Homo sapiens, UniProt P29323)
T3 construct: a protein of the extracellular region of each human Eph receptor fused with the SEAP protein and the His tag; made in house; host or cells: Expi293F cells
T3 sequence (P29323 19-543 limits assumed): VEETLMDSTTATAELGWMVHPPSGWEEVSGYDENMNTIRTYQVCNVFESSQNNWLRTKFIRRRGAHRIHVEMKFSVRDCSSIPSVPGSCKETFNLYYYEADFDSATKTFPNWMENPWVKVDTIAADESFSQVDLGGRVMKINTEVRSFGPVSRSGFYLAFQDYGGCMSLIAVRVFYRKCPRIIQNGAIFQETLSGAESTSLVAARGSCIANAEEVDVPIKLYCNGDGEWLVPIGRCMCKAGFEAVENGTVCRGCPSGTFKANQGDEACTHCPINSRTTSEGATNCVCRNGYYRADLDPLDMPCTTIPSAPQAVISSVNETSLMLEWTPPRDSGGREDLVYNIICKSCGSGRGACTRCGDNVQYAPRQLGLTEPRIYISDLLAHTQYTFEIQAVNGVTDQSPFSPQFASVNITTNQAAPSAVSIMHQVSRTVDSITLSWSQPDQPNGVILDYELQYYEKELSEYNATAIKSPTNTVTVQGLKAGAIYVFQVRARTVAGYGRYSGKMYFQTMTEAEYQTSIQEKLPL

B1: 151 (antibody, V domains shown)
VH: QIQLVQSGSELKKPGASVKVSCKASGYTFTDYSMHWVRQAPGQGLKWMGWINTETGEPTYAQGFTGRFVFSLDTSVSTAYLQISSLKAEDTAVYYCARIPLYYYGSRYWYFDVWGQGTTVTVSS
VL: DIQMTQSPSSLSASVGDRVTITCRASENIYRNLAWYQQKPGKAPKLLLYAATNLADGVPSRFSGSGSGTDYTLTISSLQSEDFATYYCQHFWGTPWTFGQGTKVEIK
modifications: synthetic humanized antibody heavy chain variable region sequence; synthetic humanized antibody light chain variable region sequence
B2: 157 (antibody, V domains shown)
VH: B1 VH with I2V, K46E
VL: B1 VL with K45Q, S80P
modifications: synthetic humanized antibody heavy chain variable region sequence; synthetic humanized antibody light chain variable region sequence
B3: 158 (antibody, V domains shown)
VH: B1 VH with I2V
VL: B1 VL with K45Q, S80P
modifications: synthetic humanized antibody heavy chain variable region sequence; synthetic humanized antibody light chain variable region sequence
B4: 154 (antibody, V domains shown)
VH: B1 VH with I2V, K46E, Q62D, G63D, T65K
VL: B1 VL
modifications: synthetic humanized antibody heavy chain variable region sequence; synthetic humanized antibody light chain variable region sequence
B5: 144 (antibody, V domains shown)
VH: B1 VH with I2V, K46E, Q62D, G63D, T65K
VL: B1 VL with K45Q, S80P
modifications: synthetic humanized antibody heavy chain variable region sequence; synthetic humanized antibody light chain variable region sequence
B6: 145 (antibody, V domains shown)
VH: B1 VH with I2V, Q62D, G63D, T65K
VL: B1 VL
modifications: synthetic humanized antibody heavy chain variable region sequence; synthetic humanized antibody light chain variable region sequence
B7: 155 (antibody, V domains shown)
VH: B1 VH with Q62D, G63D, T65K
VL: B1 VL
modifications: synthetic humanized antibody heavy chain variable region sequence; synthetic humanized antibody light chain variable region sequence
B8: 159 (antibody, V domains shown)
VH: B1 VH with I2V, Q62D, G63D, T65K
VL: B1 VL with K45Q, S80P
modifications: synthetic humanized antibody heavy chain variable region sequence; synthetic humanized antibody light chain variable region sequence
B9: 160 (antibody, V domains shown)
VH: B1 VH with Q62D, G63D, T65K
VL: B1 VL with K45Q, S80P
modifications: synthetic humanized antibody heavy chain variable region sequence; synthetic humanized antibody light chain variable region sequence

molecular target: T1, human EphA1; assay: Selectivity ELISA of humanized antibodies for human Eph receptor; type: binding; details: coated protein 1 nM
How it was run: (§1)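 Human Eph ECD-SEAP-His fusions, harvested after 5 days of Expi293F expression, are captured on anti-His-coated wells (1 nM final). Bound humanized antibody is detected with HRP anti-IgG and TMB at 450 nm.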

Question: With B1 as the molecule, how does the “hEphA1-SEAP-: absorbance at 450 nm, percentage with respect to hEphA4-SEAP-His as 100%” value read?
Answer: 7.1%

Question: For B2, which “hEphA1-SEAP-: absorbance at 450 nm, percentage with respect to hEphA4-SEAP-His as 100%” value is on record?
Answer: 6.2%

Question: With B3 as the molecule, how does the “hEphA1-SEAP-: absorbance at 450 nm, percentage with respect to hEphA4-SEAP-His as 100%” value read?
Answer: 6.5%

Question: Which “hEphA1-SEAP-: absorbance at 450 nm, percentage with respect to hEphA4-SEAP-His as 100%” value does the source give for B4 here?
Answer: 6.4%

Question: For B5, which “hEphA1-SEAP-: absorbance at 450 nm, percentage with respect to hEphA4-SEAP-His as 100%” value is on record?
Answer: 5.6%

Question: For B6, which “hEphA1-SEAP-: absorbance at 450 nm, percentage with respect to hEphA4-SEAP-His as 100%” value is on record?
Answer: 6.7%

Question: B7 was tested. Which “hEphA1-SEAP-: absorbance at 450 nm, percentage with respect to hEphA4-SEAP-His as 100%” value did it give?
Answer: 5.5%

Question: How did the “hEphA1-SEAP-: absorbance at 450 nm, percentage with respect to hEphA4-SEAP-His as 100%” value turn out when B8 was run?
Answer: 5.4%

Question: How did the “hEphA1-SEAP-: absorbance at 450 nm, percentage with respect to hEphA4-SEAP-His as 100%” value turn out when B9 was run?
Answer: 6.5%

molecular target: T4, human EphA4 (Homo sapiens, UniProt P54764); assay: as above; type: binding; details: coated protein 1 nM; reference set to 100%
T4 construct: made in house; not restated for the human SEAP-His protein
T4 sequence (P54764 20-547): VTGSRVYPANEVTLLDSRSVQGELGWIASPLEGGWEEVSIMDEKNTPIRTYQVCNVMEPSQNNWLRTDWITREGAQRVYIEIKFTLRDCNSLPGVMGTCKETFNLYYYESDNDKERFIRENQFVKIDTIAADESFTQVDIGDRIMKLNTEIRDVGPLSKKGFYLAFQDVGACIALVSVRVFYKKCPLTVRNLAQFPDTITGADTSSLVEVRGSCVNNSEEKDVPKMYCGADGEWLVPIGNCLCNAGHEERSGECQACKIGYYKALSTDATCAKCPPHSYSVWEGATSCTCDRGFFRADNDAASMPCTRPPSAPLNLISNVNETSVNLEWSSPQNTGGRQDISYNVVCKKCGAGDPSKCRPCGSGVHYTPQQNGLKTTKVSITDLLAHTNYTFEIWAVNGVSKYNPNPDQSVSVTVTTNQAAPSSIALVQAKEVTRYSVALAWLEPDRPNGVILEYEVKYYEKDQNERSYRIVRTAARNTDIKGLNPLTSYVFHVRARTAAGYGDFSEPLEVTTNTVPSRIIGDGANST
How it was run: as §1

Question: B1 was tested. Which “hEphA4-SEAP-: absorbance at 450 nm, percentage with respect to hEphA4-SEAP-His as 100%” value did it give?
Answer: 100%

Question: How did the “hEphA4-SEAP-: absorbance at 450 nm, percentage with respect to hEphA4-SEAP-His as 100%” value turn out when B2 was run?
Answer: 100%

Question: Which “hEphA4-SEAP-: absorbance at 450 nm, percentage with respect to hEphA4-SEAP-His as 100%” value does the source give for B3 here?
Answer: 100%

Question: B4 was tested. Which “hEphA4-SEAP-: absorbance at 450 nm, percentage with respect to hEphA4-SEAP-His as 100%” value did it give?
Answer: 100%

Question: For B5, which “hEphA4-SEAP-: absorbance at 450 nm, percentage with respect to hEphA4-SEAP-His as 100%” value is on record?
Answer: 100%

Question: With B6 as the molecule, how does the “hEphA4-SEAP-: absorbance at 450 nm, percentage with respect to hEphA4-SEAP-His as 100%” value read?
Answer: 100%

Question: B7 was tested. Which “hEphA4-SEAP-: absorbance at 450 nm, percentage with respect to hEphA4-SEAP-His as 100%” value did it give?
Answer: 100%

Question: How did the “hEphA4-SEAP-: absorbance at 450 nm, percentage with respect to hEphA4-SEAP-His as 100%” value turn out when B8 was run?
Answer: 100%

Question: How did the “hEphA4-SEAP-: absorbance at 450 nm, percentage with respect to hEphA4-SEAP-His as 100%” value turn out when B9 was run?
Answer: 100%

molecular target: T2, human EphB1; assay: as above; type: binding; details: coated protein 1 nM
How it was run: as §1

Question: How did the “hEphB1-SEAP-: absorbance at 450 nm, percentage with respect to hEphA4-SEAP-His as 100%” value turn out when B1 was run?
Answer: 6.8%

Question: B2 was tested. Which “hEphB1-SEAP-: absorbance at 450 nm, percentage with respect to hEphA4-SEAP-His as 100%” value did it give?
Answer: 6.1%

Question: With B3 as the molecule, how does the “hEphB1-SEAP-: absorbance at 450 nm, percentage with respect to hEphA4-SEAP-His as 100%” value read?
Answer: 6.2%

Question: B4 was tested. Which “hEphB1-SEAP-: absorbance at 450 nm, percentage with respect to hEphA4-SEAP-His as 100%” value did it give?
Answer: 6.3%

Question: For B5, which “hEphB1-SEAP-: absorbance at 450 nm, percentage with respect to hEphA4-SEAP-His as 100%” value is on record?
Answer: 5.7%

Question: How did the “hEphB1-SEAP-: absorbance at 450 nm, percentage with respect to hEphA4-SEAP-His as 100%” value turn out when B6 was run?
Answer: 6.5%

Question: For B7, which “hEphB1-SEAP-: absorbance at 450 nm, percentage with respect to hEphA4-SEAP-His as 100%” value is on record?
Answer: 5.4%

Question: For B8, which “hEphB1-SEAP-: absorbance at 450 nm, percentage with respect to hEphA4-SEAP-His as 100%” value is on record?
Answer: 5.3%

Question: With B9 as the molecule, how does the “hEphB1-SEAP-: absorbance at 450 nm, percentage with respect to hEphA4-SEAP-His as 100%” value read?
Answer: 6.1%

molecular target: T3, human EphB2; assay: as above; type: binding; details: coated protein 1 nM
How it was run: as §1

Question: Which “hEphB2-SEAP-: absorbance at 450 nm, percentage with respect to hEphA4-SEAP-His as 100%” value does the source give for B1 here?
Answer: 7.0%

Question: B2 was tested. Which “hEphB2-SEAP-: absorbance at 450 nm, percentage with respect to hEphA4-SEAP-His as 100%” value did it give?
Answer: 6.2%

Question: B3 was tested. Which “hEphB2-SEAP-: absorbance at 450 nm, percentage with respect to hEphA4-SEAP-His as 100%” value did it give?
Answer: 6.3%

Question: For B4, which “hEphB2-SEAP-: absorbance at 450 nm, percentage with respect to hEphA4-SEAP-His as 100%” value is on record?
Answer: 6.2%

Question: With B5 as the molecule, how does the “hEphB2-SEAP-: absorbance at 450 nm, percentage with respect to hEphA4-SEAP-His as 100%” value read?
Answer: 5.7%

Question: How did the “hEphB2-SEAP-: absorbance at 450 nm, percentage with respect to hEphA4-SEAP-His as 100%” value turn out when B6 was run?
Answer: 6.7%

Question: For B7, which “hEphB2-SEAP-: absorbance at 450 nm, percentage with respect to hEphA4-SEAP-His as 100%” value is on record?
Answer: 5.5%

Question: With B8 as the molecule, how does the “hEphB2-SEAP-: absorbance at 450 nm, percentage with respect to hEphA4-SEAP-His as 100%” value read?
Answer: 5.4%

Question: How did the “hEphB2-SEAP-: absorbance at 450 nm, percentage with respect to hEphA4-SEAP-His as 100%” value turn out when B9 was run?
Answer: 6.2%
